Assay results reported in patent US12540174 (NASCENT BIOTECH, dated 2026).

Legend:
[1] = biological target: T1, recombinant human vimentin (human, UniProt P08670 1-466, limits assumed); test: BLI, Octet HTX, 25 C; pritumumab on anti-human-Fc (AHC) biosensors, recombinant human vimentin as analyte, 1:1 model
T1 construct: also called recombinant vimentin
Description: (§1) To determine binding affinity of the antibody Pritumumab for vimentin. Octet HTX was employed to measure the antibody binding to human vimentin. Binding experiments were performed on Octet HTX at 25° C. Pritumumab (10 ug/ml) was loaded onto Anti-Human-Fc (AHC) biosensors. Loaded sensors were dipped into a serial of antigen dilutions (recombinant human vimentin) (300 nM start, 1:3 down, 7 points). Kinetic constants were calculated using a monovalent (1:1) model.

[2] = biological target: T2, antigen of the potency binding ELISA of Example 1 (not named); test: binding ELISA, antigen not named; third lot (reference standard) stored in PETG serum vial
T2 construct: kept apart from m2 so as not to guess

[3] = biological target: T2, antigen of the potency binding ELISA of …; test: binding ELISA (potency assay), antigen not named; lot stored in glass serum containers
[4] = biological target: T2, antigen of the potency binding ELISA of …; test: binding ELISA (potency assay), antigen not named; lot stored in PETG serum vial
[5] = biological target: T2, antigen of the potency binding ELISA of …; test: binding ELISA (potency assay), antigen not named; lot stored in polypropylene cryovial
[6] = biological target: T2, antigen of the potency binding ELISA of …; test: binding (potency) ELISA, OD 450 nm against Log10 [mAb]; reference standard (tox) lot stored in polypropylene cryovial 2; coated antigen not named; the table cell has no unit, ug/ml is taken from the concentration axis
[7] = biological target: T2, antigen of the potency binding ELISA of …; test: binding (potency) ELISA, OD 450 nm against Log10 [mAb]; reference standard (tox) lot stored in polypropylene cryovial 1; coated antigen not named; the table cell has no unit, ug/ml is taken from the concentration axis
[8] = biological target: T2, antigen of the potency binding ELISA of …; test: binding (potency) ELISA, OD 450 nm against Log10 [mAb]; reference standard (tox) lot stored in polypropylene cryovial 3; coated antigen not named; the table cell has no unit, ug/ml is taken from the concentration axis
[9] = biological target: T1, recombinant human vimentin; test: BLI, Octet HTX, 25 C; pritumumab on anti-human-Fc (AHC) biosensors, recombinant human vimentin as analyte (300 nM start, 1:3, 7 points), 1:1 model
Description: as §1

[10] = biological target: T2, antigen of the potency binding ELISA of …; test: binding ELISA, antigen not named; third lot (reference standard) stored in polypropylene cryovials, 3 vials
[11] = biological target: T2, antigen of the potency binding ELISA of …; test: binding (potency) ELISA, OD 450 nm against Log10 [mAb]; clinical drug substance lot stored in polypropylene cryovial; coated antigen not named
[12] = biological target: T2, antigen of the potency binding ELISA of …; test: binding (potency) ELISA, OD 450 nm against Log10 [mAb]; reference standard (tox) lot stored in PETG serum vial; coated antigen not named; the table cell has no unit, ug/ml is taken from the concentration axis

T1 sequence (P08670 whole entry): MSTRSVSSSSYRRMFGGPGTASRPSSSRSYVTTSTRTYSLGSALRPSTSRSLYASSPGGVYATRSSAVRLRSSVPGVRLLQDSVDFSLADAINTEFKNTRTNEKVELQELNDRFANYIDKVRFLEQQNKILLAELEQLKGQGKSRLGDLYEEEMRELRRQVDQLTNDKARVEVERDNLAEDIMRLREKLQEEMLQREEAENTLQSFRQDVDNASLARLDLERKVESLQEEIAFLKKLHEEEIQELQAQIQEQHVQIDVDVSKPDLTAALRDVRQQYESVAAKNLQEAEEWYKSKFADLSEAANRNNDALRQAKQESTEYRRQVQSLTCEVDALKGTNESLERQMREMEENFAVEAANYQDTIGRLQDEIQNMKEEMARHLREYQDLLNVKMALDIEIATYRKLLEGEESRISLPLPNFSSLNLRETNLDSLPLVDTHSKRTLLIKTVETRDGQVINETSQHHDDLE

B1: pritumumab (antibody, human IgG1, kappa, V domains shown)
VH: EVQLLESGGDLVQPGGSLRLSCAASGFTFSNYAMSWVRQAPGKGLEWVSAITPSGGSTNYADSVKGRFTISRDNSQNTLYLQMNSLRVEDTAVYICGRVPYRSTWYPLYWGQGTLVTVSS
VL: DIQMTQSPSSLSASVGDRVTITCRASQDISNYLAWFQQKPGKAPKSLIYAASSLHSKVPTQFSGSGSGTDFTLTISSLQPEDFATYYCLQYSTYPITFGGGTKVEIKR
notes: Several lots stored in different containers (glass, PETG, polypropylene) were tested; also called Pritumumab human monoclonal antibody
koff [1]: 0.000443 s⁻¹
kon [1]: 58700 M⁻¹ s⁻¹
EC50 [2]: 11 µg/mL
EC50 [3]: 8.25 µg/mL
EC50 [4]: 9.6 µg/mL
EC50 [5]: 20 µg/mL
EC50 [6]: 37.1 µg/mL
EC50 [7]: 38 µg/mL
EC50 [8]: 40.2 µg/mL
Kd [9]: 7.55 nM
EC50 [10]: 37 to 40 µg/mL
EC50 [11]: 20.1 µg/mL
EC50 [12]: 11.4 µg/mL
